Patent US20080182978A1, “ANTI-NGF ANTIBODIES AND METHODS USING SAME” (RINAT NEUROSCIENCE CORP, priority 2002, published 2008)
Entries after “also recorded” stand apart in the source; their conditions may differ.

Assays:
[1] = target: T1, human NGF (Homo sapiens, UniProt P01138); test: Mouse E13.5 trigeminal neuron survival assay, human NGF; type: cell-based; conditions: 0.4 ng/ml human NGF (saturating); 0.00128-20 nM
Description: The ability of Fab E3 or full antibody E3 to block NGF activity was evaluated by measurement of the capacity of the antibody to inhibit NGF-dependent survival of mouse E13.5 trigeminal neurons in vitro. The trigeminal ganglion is comprised of cutaneous sensory neurons that innervate the facial region. The survival of mouse E13.5 trigeminal neurons is a sensitive assay to evaluate the NGF-blocking activity of anti-NGF antagonist antibodies because NGF is required to support survival of these neurons. For example, at saturating concentrations of NGF, the survival is close to 100% by 48 hours in culture. By contrast, less than 5% of the neurons survive by 48 hours in absence of NGF.
The survival assay was conducted as follows: time-mated pregnant Swiss Webster female mice were euthanized by CO2 inhalation. The uterine horns were removed and the embryos at embryonic stage E13.5 were extracted and decapitated. The trigeminal ganglia were dissected using electrolytically sharpened tungsten needles. The ganglia were then trypsinized, mechanically dissociated and plated at a density of 200-300 cells per well in defined, serum-free medium in 96-well plates coated with poly-L-ornithine and laminin.
After 48 hours in culture, the cells were subjected to an automated immunocytochemistry protocol performed on a Biomek FX liquid handling workstation (Beckman Coulter) as follows: fixation using 4% formaldehyde, 5% sucrose, and PBS; permeabilization using 0.3% Triton X-100 in PBS); blocking of unspecific binding sites using 5% normal goat serum, 0.11% BSA in PBS; and sequential incubation with a primary and secondary antibodies to detect neurons. The primary antibody was rabbit polyclonal antibody against the protein gene product […] (PGP9.5, Chemicon), an established neuronal phenotypic marker. The secondary antibody was Alexa Fluor 488 goat anti-rabbit (Molecular Probes), together with the nuclear dye Hoechst 33342 (Molecular Probes) to label the nuclei of all the cells present in the culture. […]

[2] = target: T1, human NGF; test: Mouse E17/18 trigeminal neuron survival assay, NGF; type: cell-based; conditions: saturating NGF (400 pM); 48 hours
Description: The ability of antibody E3 to specifically block NGF activity was evaluated by measurement of the capacity of the antibody to inhibit survival of mouse E17/18 trigeminal neurons in vitro in the presence of saturating concentrations of NGF, the NGF-related neurotrophin NT3, or the NGF-unrelated neurotrophic factor, macrophage stimulating protein (MSP). The survival of mouse E17/18 trigeminal neurons is a sensitive assay to evaluate the NGF-blocking activity of anti-NGF antagonist antibodies because NGF is required to support survival of these neurons at higher concentrations than the level of NGF required to support survival of E13.5 TG neurons).
The survival assay was conducted as follows: time mated pregnant Swiss Webster female mice were euthanised by CO2 inhalation. The uterine horns were removed and the embryos (at embryonic day 17 or 18) were extracted and decapitated. The trigeminal and nodose ganglia were dissected and cleaned. The ganglia were then trypsinised, mechanically dissociated and plated at a density of 100-300 cells per well in defined, serum-free medium in 4-well plates (Greiner) coated with poly-L-ornithine and laminin.
E17/18 trigeminal neurons were grown either without added neurotrophic factors (negative control) or in the presence of saturating concentrations of human NGF (400 pM and 15 pM) (positive control); NT3 (400 pM); or MSP (600 pM). […]

[3] = test system: adjuvant-induced arthritis; test: Dose response of E3 on vocalization intensity in arthritic rats (Example 9); type: in vivo, rat
Description: The ability of E3 to produce reduction in pain in arthritic rats was further investigated by examining the dose response relationship between E3 administration and pain reduction. Rats were treated with adjuvant to induce arthritis as described above. Ten rats not injected with adjuvant were used as non-arthritic controls. Fourteen days after adjuvant injection, animals were qualified into the study based on the criteria stated above, randomized into eight groups of ten rats and tested for the intensity of their vocalization response. They were then dosed on day 14 with saline, or 0.003 mg/kg, 0.01 mg/kg, 0.03 mg/kg, 0.1 mg/kg, 0.3 mg/kg, 1 mg/kg or 5 mg/kg of E3 antibody as described above. Animals were tested for their vocalization response on days 16, 18, 20, and 24. Animals were redosed with saline or the same dose of E3 on day 18 after the vocalization testing. Animals were also weighed each day, starting at day 14. Thus, animals were dosed twice with a given dose of antibody or saline on days 14 and 18, and assessed for pain five times, on days 14, 16, 18, 20 and 24. Data are shown in Tables 20-22 and in FIGS. 20-22. The effect of treating animals with various doses of anti-NGF antibody E3 on pain induced vocalization (data shown in Table 20) was statistically analyzed by using two-way ANOVA to compare the results obtained pairwise between arthritic animals treated with vehicle with those treated with a given dose of antibody E3. […] Even at the lowest dose tested (0.003 mg/kg of E3), the difference in vocalization was significant (p<0.0001).

T1 sequence (P01138 122-241): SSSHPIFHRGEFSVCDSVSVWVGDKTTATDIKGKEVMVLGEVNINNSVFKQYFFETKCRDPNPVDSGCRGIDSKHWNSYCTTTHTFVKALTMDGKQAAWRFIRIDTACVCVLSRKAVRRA

B1: E3: humanized, affinity matured anti-NGF antagonist antibody; variable regions SEQ ID NO:1 and 2; human IgG2a (A330P331 to S330S331), kappa (antibody, V domains shown)
VH: QVQLQESGPGLVKPSETLSLTCTVSGFSLIGYDLNWIRQPPGKGLEWIGIIWGDGTTDYNSAVKSRVTISKDTSKNQFSLKLSSVTAADTAVYYCARGGYWYATSYYFDYWGQGTLVTVS
VL: DIQMTQSPSSLSASVGDRVTITCRASQSISNNLNWYQQKPGKAPKLLIYYTSRFHSGVPSRFSGSGSGTDFTFTISSLQPEDIATYYCQQEHTLPYTFGQGTKLEIKRT
modifications: human IgG2a constant (A330S/P331S) and kappa constant missing
Q: For B1, which “inhibition of NGF-dependent survival compared with antibody 911 and trkA immunoadhesin” value [1] is on record?
A: blocked NGF significantly better than either mouse monoclonal anti-NGF antibody 911 or the trkA immunoadhesin

Q: And the “survival of E17/18 trigeminal neurons promoted by NGF” value [2]?
A: completely blocked; also recorded: totally blocked

Q: And the “effect on pain induced vocalization vs vehicle (two-way ANOVA)” value ([3]; 0.003 to 5 mg/kg, p<0.0001)?
A: highly significant effect at all levels of E3 tested

Q: What about the Vocalization intensity ([3]; E3 0.003 mg/kg on days 14+18, day 14) of the same molecule?
A: 981.75 mV

Q: What about the Vocalization intensity ([3]; E3 0.003 mg/kg on days 14+18, day 16) of the same molecule?
A: 825.60 mV

Q: And the Vocalization intensity ([3]; E3 0.003 mg/kg on days 14+18, day 18)?
A: 427.43 mV

Q: What about the Vocalization intensity ([3]; E3 0.003 mg/kg on days 14+18, day 20) of the same molecule?
A: 448.00 mV

Q: What about the Vocalization intensity ([3]; E3 0.003 mg/kg on days 14+18, day 24) of the same molecule?
A: 724.50 mV

Q: And the Vocalization intensity ([3]; E3 0.01 mg/kg on days 14+18, day 14)?
A: 1007.28 mV

Q: And the Vocalization intensity ([3]; E3 0.01 mg/kg on days 14+18, day 16)?
A: 576.88 mV

Q: And the Vocalization intensity ([3]; E3 0.01 mg/kg on days 14+18, day 18)?
A: 334.45 mV

Q: And the Vocalization intensity ([3]; E3 0.01 mg/kg on days 14+18, day 20)?
A: 313.13 mV

Q: And the Vocalization intensity ([3]; E3 0.01 mg/kg on days 14+18, day 24)?
A: 596.38 mV

Q: And the Vocalization intensity ([3]; E3 0.03 mg/kg on days 14+18, day 14)?
A: 963.18 mV

Q: And the Vocalization intensity ([3]; E3 0.03 mg/kg on days 14+18, day 16)?
A: 448.43 mV

Q: What about the Vocalization intensity ([3]; E3 0.03 mg/kg on days 14+18, day 18) of the same molecule?
A: 292.52 mV

Q: And the Vocalization intensity ([3]; E3 0.03 mg/kg on days 14+18, day 20)?
A: 209.48 mV

Q: What about the Vocalization intensity ([3]; E3 0.03 mg/kg on days 14+18, day 24) of the same molecule?
A: 513.60 mV

Q: What about the Vocalization intensity ([3]; E3 0.1 mg/kg on days 14+18, day 14) of the same molecule?
A: 1159.30 mV

Q: What about the Vocalization intensity ([3]; E3 0.1 mg/kg on days 14+18, day 16) of the same molecule?
A: 283.71 mV

Q: What about the Vocalization intensity ([3]; E3 0.1 mg/kg on days 14+18, day 18) of the same molecule?
A: 262.96 mV

Q: And the Vocalization intensity ([3]; E3 0.1 mg/kg on days 14+18, day 20)?
A: 79.74 mV

Q: And the Vocalization intensity ([3]; E3 0.1 mg/kg on days 14+18, day 24)?
A: 432.45 mV

Q: And the Vocalization intensity ([3]; E3 0.3 mg/kg on days 14+18, day 14)?
A: 1191.58 mV

Q: And the Vocalization intensity ([3]; E3 0.3 mg/kg on days 14+18, day 16)?
A: 151.85 mV

Q: And the Vocalization intensity ([3]; E3 0.3 mg/kg on days 14+18, day 18)?
A: 194.19 mV

Q: And the Vocalization intensity ([3]; E3 0.3 mg/kg on days 14+18, day 20)?
A: 66.27 mV

Q: And the Vocalization intensity ([3]; E3 0.3 mg/kg on days 14+18, day 24)?
A: 176.32 mV

Q: And the Vocalization intensity ([3]; E3 1.0 mg/kg on days 14+18, day 14)?
A: 1067.00 mV

Q: What about the Vocalization intensity ([3]; E3 1.0 mg/kg on days 14+18, day 16) of the same molecule?
A: 98.62 mV

Q: And the Vocalization intensity ([3]; E3 1.0 mg/kg on days 14+18, day 18)?
A: 174.13 mV

Q: What about the Vocalization intensity ([3]; E3 1.0 mg/kg on days 14+18, day 20) of the same molecule?
A: 71.23 mV

Q: And the Vocalization intensity ([3]; E3 1.0 mg/kg on days 14+18, day 24)?
A: 19.21 mV

Q: What about the “fall of vocalization intensity” value ([3]; E3 1 mg/kg, within two days (earliest time point tested)) of the same molecule?
A: 90%

Q: And the Vocalization intensity ([3]; E3 5.0 mg/kg on days 14+18, day 14)?
A: 896.25 mV

Q: And the Vocalization intensity ([3]; E3 5.0 mg/kg on days 14+18, day 16)?
A: 79.18 mV

Q: What about the Vocalization intensity ([3]; E3 5.0 mg/kg on days 14+18, day 18) of the same molecule?
A: 200.42 mV

Q: What about the Vocalization intensity ([3]; E3 5.0 mg/kg on days 14+18, day 20) of the same molecule?
A: 63.57 mV

Q: And the Vocalization intensity ([3]; E3 5.0 mg/kg on days 14+18, day 24)?
A: 12.35 mV

Q: What about the “pain relief at lowest dose” value ([3]; doses as low as 0.003 mg/kg) of the same molecule?
A: at least partial pain relief
